Assay results reported in the NTF2 design screens of Basanta et al. (2020).

Experiment: protease stability score; higher = more stable; yeast display proteolysis, trypsin and chymotrypsin;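 further: relative to predicted unfolded state with 0 unfolded-like and 1 meaning tenfold more protease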

In the case of “SEDETIALEFLKNWLRDLKTGNEEALSKLLDPNARMVFNGKEHHGREILLDIIKHFVERIDHFNSLHVHDIKIQGDKVHMDLRLIGHVDGREVEHRIHMVIIKYDGRWINQVEEIE”, the protease stability score is reported as 1.16.

With “SEDETLAEEAVEEFEKHMETGDEDELIRLVDPHVKIHFNGRDIHGWKWIHVFLRDLGVDVKRIHVKDIEVFNGVVLLRGEFRFRFNGQDFSKDVENIIVKVDGRWFHHEIRIR” the protease stability score was 1.85.

“SEDETLMRHLVQLFIRREATGDWKKLDELFDPNVRIDINGVEYHGREDWLKHYEDLLKRIKNVRIEIDDQHMEVVGDFIHYDLHGTLEVNGRNIRMQIIIHIRKIDGKWLIEEQIIIIR” showed a protease stability score of 1.4.

“SEDEWWARYVTKLLIHSMKTGDEDLLHELADPSTKLDVGDKRYHGREEFRRLMRELRERADHLTISIKHIEVQGDKVDLDMHIRLEYGDKFIELRVHIHVEKVNGQWRLREREER” showed a protease stability score of 0.879.

For “SEDFHRIFHMLELIIRAWITGDEELLEKLADPHVRIDIDGVDIVGMELVSTFLHEIRFDLKQIRFKDIHVVNGRIRLHGESDVHVQIGDKEYEIRSEEEWIVTKVNGQWRLTEVRYL”, the protease stability score was 2.08.

With “SEDHDLVREVARLYIDAVKTGDEDLIRFLFDPHVRSEINGVQLHGWEEVFRFWQELRVHHIDLHSVHVEFQGDKAINRNEVHYNGEYGDKRNRYRLDLRIILHKIDGRWIVEEVHLITD” the protease stability score was 1.45.

“SEDHDTDRHIMDLILRDVFTGDEEEFTRLADPNVKHIDENHFSVGWENVLEMLRFWEDEARMTDIKIHDLEIQGDKIVSHVHIDGEVNGKRRELEVIIYILKVDGKWHLEYFEVR” gave a protease stability score of 2.2.

In the case of “SEDHEAAHDMLELLRHMELTGDENSLMDLLDPNAKNDVDGKVSVGREEWLRMVHFLLTRFDHIKSIEVEESRHIDGRLNYQTRLRGTVNGQDVELRTEWIVIKVNGKWFLHKVRFV”, the protease stability score is reported as 1.24.

Work on “SEDHEAAHEVIREWEKVHKTGDEHIFTQLLDPHMRIEIGDKRFHGRDEAVTHFRENLTHWRIHRMEMEDVNSQGEYIIYHVQNFVRINGKVVILDLTIIILKVDGRWVIHSIHIK” yielded a protease stability score of 1.24.

For “SEDHEAFDSMIQSWLDVYLTGDEDIMLELFDPRMRVDINGKDIHGMHHYTDLLHKVRRERGFEEHLRIEDSKVINGKAEFHTHVHIRQGDKNMEFEVTIVVLKINGKWWIKHIEIT”, the protease stability score was 0.922.

For “SEDHEALHKFLKELIESSRTGDWEDVTRLADPHTRQDFNGKILHGREELKETLKELGINHMEVILNRIDVQGDKAHVDGHLVIYYNGKEITREREIRMVKIDGVWLMHEVRIK”, the protease stability score was 1.15.

In the case of “SEDHEATHLIVELLERALKTGNERLWKDLFDPNVRIDINGKYFHGREEYVHFFKEWRFHDSRVHVHEVRVNEHELHIHGEVESHVTYNGQHRNLRLETTLFVIKVNGRWLFRHIEVR”, the protease stability score is reported as 1.5.

Work on “SEDHEDMDRMFDLLIKLLYTGDEESLEELFDPNTRIDVGDKVLHGRELAVKHVKDRLRRADHIEFHIKDRRAIDGRLEIDMELRIHVDGKDIIIRTKVHLEKVNGRWLIHHIKVH” yielded a protease stability score of 1.38.

“SEDHEEVRKVTKVYLELFETGDEEELMKLADPEVRLHINGRDLHGREWMERAIRELLEYYGVKHIESWTIHDITIQGDKAVMDTSVKIRVNGREHELKMHIYSRKFDGRWFLTSVRFH” showed a protease stability score of 1.26.

Work on “SEDHEFSEHALREFIHVLMTGDERSLLKLMDPHTQLIFNGKEIHGMEEIIRIWSEHVKRFGFNHIDHVHIHHVEIQGDKIRIDGTTRGLVNGREHTHRTHLIAIKYNGKWIIHNIKID” yielded a protease stability score of 1.9.

With “SEDHEFVRFIIEQLLHDLFTGDWRRLLKLFDPNAMIEVGDKTLHGMENIYRWHEEHYERLGLSNVEIHILIRKIHIQGDKVHIDGLLRLHFNGRDTEIHVRLHALKIDGKWQLTRVQHD” the protease stability score was 1.89.

Work on “SEDHEIARLAVEIETHSQLTGDEESMNHLLDPTTRININGRELHGREEAIEWMKRFMEQFDHVKVEVEDISIQGEKLIIRGRFSVIYDGRKVQDHTEVIIVKFNGRWHVKSVHIR” yielded a protease stability score of 2.58.

Sequence “SEDHEIIRHYFELLVESFRTGDEETTRRLADPNTRLYFNGKTLHGMEAMLEVLLEIRIEEVELHHVEVINGRVEMDGTVRGIFNGRNQEVKVTFHARKINGVWILNWVEIH” has a protease stability score of 2.12.

For “SEDHEISRRMLEMVLDSFDTGDEHIYKDLADPHAKIEVNGKDIHGWDTWASEMVERTERVPGVRKEIHIRDIKSQGDKIEIRGEVIIDFNGKTIRYRVLFVIEKINGRWFIKSEHIK”, the protease stability score was 1.04.
